Molecular target: H3K9me0 peptide
Assay: FP
Conditions: enzyme; modification not given

Kd: 66 µM
B1: Full-length human G9a with an N-terminal MBP tag (MBP:FL-G9a), Q96KQ7 1-1210 (protein)
chain: AAAAGAAAAAAAEGEAPAEMGALLLEKETRGATERVHGSLGDTPRSEETLPKATPDSLEPAGPSSPASVTVTVGDEGADTPVGATPLIGDESENLEGDGDLRGGRILLGHATKSFPSSPSKGGSCPSRAKMSMTGAGKSPPSVQSLAMRLLSMPGAQGAAAAGSEPPPATTSPEGQPKVHRARKTMSKPGNGQPPVPEKRPPEIQHFRMSDDVHSLGKVTSDLAKRRKLNSGGGLSEELGSARRSGEVTLTKGDPGSLEEWETVVGDDFSLYYDSYSVDERVDSDSKSEVEALTEQLSEEEEEEEEEEEEEEEEEEEEEEEEDEESGNQSDRSGSSGRRKAKKKWRKDSPWVKPSRKRRKREPPRAKEPRGVNGVGSSGPSEYMEVPLGSLELPSEGTLSPNHAGVSNDTSSLETERGFEELPLCSCRMEAPKIDRISERAGHKCMATESVDGELSGCNAAILKRETMRPSSRVALMVLCETHRARMVKHHCCPGCGYFCTAGTFLECHPDFRVAHRFHKACVSQLNGMVFCPHCGEDASEAQEVTIPRGDGVTPPAGTAAPAPPPLSQDVPGRADTSQPSARMRGHGEPRRPPCDPLADTIDSSGPSLTLPNGGCLSAVGLPLGPGREALEKALVIQESERRKKLRFHPRQLYLSVKQGELQKVILMLLDNLDPNFQSDQQSKRTPLHAAAQKGSVEICHVLLQAGANINAVDKQQRTPLMEAVVNNHLEVARYMVQRGGCVYSKEEDGSTCLHHAAKIGNLEMVSLLLSTGQVDVNAQDSGGWTPIIWAAEHKHIEVIRMLLTRGADVTLTDNEENICLHWASFTGSAAIAEVLLNARCDLHAVNYHGDTPLHIAARESYHDCVLLFLSRGANPELRNKEGDTAWDLTPERSDVWFALQLNRKLRLGVGNRAIRTEKIICRDVARGYENVPIPCVNGVDGEPCPEDYKYISENCETSTMNIDRNITHLQHCTCVDDCSSSNCLCGQLSIRCWYDKDGRLLQEFNKIEPPLIFECNQACSCWRNCKNRVVQSGIKVRLQLYRTAKMGWGVRALQTIPQGTFICEYVGELISDAEADVREDDSYLFDLDNKDGEVYCIDARYYGNISRFINHLCDPNIIPVRVFMLHQDLRFPRIAFFSSRDIRTGEELGFDYGDRFWDIKSKYFTCQCGSEKCKHSAEAIALEQSRLARLDPHPELLPELGSLPPVNT

Source: doi:10.1101/2021.05.05.442822
